According to the supplement of paper PMC10567573:

B1: ZER1 (parent)
chain: PILRLLPQGISPVSQHWATWALYN

Variants of: B1
Assay: protein stability index of a GFP-peptide fusion (GPS, HEK-293T) (PSI 1-6); higher = more stable
Conditions: c terminus: a fixed tail appended
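Further: lentivirally expressed fusions sorted by FACS into six bins by GFP to DsRed ratio, PSI derived from sequencing read proportions per bin multiplied by bin number.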

Variant	protein stability index
PILRLLPQGISPVVQHWATWALYN	2.62
PILRLLPQGISPVQQHWATWALYN	2.12
PILRLLPQGISPVCQHWATWALYN	2.98
PILRLLPQGISPVTQHWATWALYN	1.11
PILRLLPQGISQVSQHWATWALYN	3.42
PILRLLPQGISIVSQHWATWALYN	3.2
PILRLLPQGISVVSQHWATWALYN	2.1
PILRLLPQGISAVSQHWATWALYN	2.33
PILRLLPQGISHVSQHWATWALYN	3.2
PILRLLPQGISNVSQHWATWALYN	1.85
PILRLLPQGISKVSQHWATWALYN	2.87
PILRLLPQGISYVSQHWATWALYN	3.44
PILRLLPQGISFVSQHWATWALYN	3.32
PILRLLPQGISPDSQHWATWALYN	2.84
PILRLLPQGISPISQHWATWALYN	1.68
PILRLLPQGISPCSQHWATWALYN	2.48
PILRLLPQGISPSSQHWATWALYN	2.54
PILRLLPQGISPNSQHWATWALYN	1.8
PILRLLPQGISPTSQHWATWALYN	3.01
PILRLLPQGISPLSQHWATWALYN	2.34
PILRLLPQGISPGSQHWATWALYN	1.87
PILRLLPQGISPFSQHWATWALYN	1.88
PILRLLPQGISPWSQHWATWALYN	1.54
PILRLLPQGISPASQHWATWALYN	4.06

Variant	protein stability index
PILRLLPQGISPVSQHIATWALYN	3.9
PILRLLPQGISPVSQHHATWALYN	1.57
PILRLLPQGISPVSQHQATWALYN	3.2
PILRLLPQGISPVSQHMATWALYN	3.18
PILRLLPQGISPVSQHAATWALYN	1.72
PILRLLPQGISPVSQHFATWALYN	3.63
PILRLLPQGISPVSQHGATWALYN	1.93
PILRLLPQGISPVSQHEATWALYN	2.35
PILRLLPQGISPVSQHYATWALYN	2.15
PILRLLPQGISPVSQHTATWALYN	1.73
PILRLLPQGISPVSQHDATWALYN	1.79
PILRLLPQGISPVSQHNATWALYN	1.83
PILRLLPQGISPVSQHKATWALYN	2.16
PILRLLPQGISPVSQHPATWALYN	1.4
PILRLLPQGISPVSQHCATWALYN	2.27
PILRLLPQGISPVSQHLATWALYN	4.01
PILRLLPQGISPVSQHVATWALYN	2.59
PILRLLPQGISPVSQHSATWALYN	2.51
PILRLLPQGISPVSQHRATWALYN	3.1
PILRLLPQGISPVSQHWATWTLYN	2.57
PILRLLPQGISPVSQHWATWSLYN	2.6
PILRLLPQGISPVSQHWATWKLYN	2.07
PILRLLPQGISPVSQHWATWWLYN	2.29
PILRLLPQGISPVSQHWATWDLYN	2.79

Variant	protein stability index
PILRLLPQGISPVSQHWATWILYN	3.15
PILRLLPQGISPVSQHWATWFLYN	2.7
PILRLLPQGISPVSQHWATWMLYN	3.29
PILRLLPQGISPVSQHWATWRLYN	1
PILRLLPQGISPVSQHWATWCLYN	2.69
PILRLLPQGISPVSQHWATWELYN	2.6
PILRLLPQGISPVSQHWATWQLYN	3.72
PILRLLPQGISPVSQHWATWVLYN	3.96
PILRLLPQGISPVSQHWATWNLYN	1.76
PILRLLPQGISPVSQHWATWLLYN	2.38
PILRLLPQGISPVSQHWATWPLYN	2.65
PILRLLPQGISPVSQHWATWYLYN	4.95
PILRLLPQGNSPVSQHWATWALYN	2.41
PILRLLPQGHSPVSQHWATWALYN	2.79
PILRLLPQGDSPVSQHWATWALYN	1.76
PILRLLPQGMSPVSQHWATWALYN	3.55
PILRLLPQGLSPVSQHWATWALYN	2.61
PILRLLPQGESPVSQHWATWALYN	3.31
PILRLLPQGISPVSQHWATWALVN	3.73
PILRLLPQGISPVSQHWATWALEN	1.8
PILRLLPQGISPVSQHWATWALHN	3.01
PILRLLPQGISPVSQHWATWALDN	2
PILRLLPQGISPVSQHWATWALRN	1.17
PILRLLPQGISPVSQHWATWALGN	2.11

Variant	protein stability index
PILRLLPQGISPVSQHWATWALIN	3.22
PILRLLPQGISPVSQHWATWALPN	1.54
PILRLLPQGISPVSQHWATWALSN	1.66
PILRLLPQGISPVSQHWATWALNN	2.92
PILRLLPQGISPVSQHWATWALKN	1.92
PILRLLPQGISPVSQHWATWALWN	4.62
PILRLLPQGISPVSVHWATWALYN	3.31
PILRLLPQGISPVSEHWATWALYN	2.19
PILRLLPQGISPVSTHWATWALYN	3.05
PILRLLPQGISPVSFHWATWALYN	2.68
PILRLLPQGISPVSNHWATWALYN	2.99
PILRLLPQGISPVSKHWATWALYN	2.97
PILRLLPQGISPVSGHWATWALYN	1
PILRLLPQGISPVSMHWATWALYN	4.6
PILRLLPQGISPVSLHWATWALYN	1.94
PILRLLPQGISPVSQPWATWALYN	1.45
PILRLLPQGISPVSQNWATWALYN	2.34
PILRLLPQGISPVSQEWATWALYN	1.34
PILRLLPQGISPVSQIWATWALYN	3.38
PILRLLPQGISPVSQDWATWALYN	2.11
PILRLLPQGISPVSQKWATWALYN	1.94
PILRLLPQGISPVSQRWATWALYN	3.32
